Like-named read-outs stand apart in the source and are kept apart here.
What was measured:
Test in all cases: FRET or BRET
[1] = biological target: 43S pre-initiation complex without eIF1 (40S•eIF1A-TAMRA•TC) (S. cerevisiae) (UniProt P38912)
[2] = biological target: 43S pre-initiation complex without eIF1 (40S•eIF1A-TAMRA•TC) (S. cerevisiae) (UniProt P38912); remark: listed apart in the source
[3] = biological target: 43S pre-initiation complex without eIF1 (40S•eIF1A-TAMRA•TC) (S. cerevisiae) (UniProt P38912); remark: listed apart in the source
[4] = biological target: 43S pre-initiation complex without eIF1 (40S•eIF1A-TAMRA•TC) (S. cerevisiae) (UniProt P38912); remark: listed apart in the source
[5] = biological target: 43S pre-initiation complex without eIF1 (40S•eIF1A-TAMRA•TC) (S. cerevisiae) (UniProt P38912); remark: listed apart in the source

Sequence of UniProt P38912 (P38912 whole entry, looked up, one chain of several): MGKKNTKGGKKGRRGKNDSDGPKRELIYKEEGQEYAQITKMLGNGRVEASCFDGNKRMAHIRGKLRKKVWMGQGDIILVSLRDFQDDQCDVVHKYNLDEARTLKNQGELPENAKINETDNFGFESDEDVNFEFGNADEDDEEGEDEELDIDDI

Substance	kobs of eIF1 dissociation (slow phase) [1] [s⁻¹]	kobs of eIF1 dissociation (slow phase) [2] [s⁻¹]	kobs of eIF1 dissociation (slow phase) [3] [s⁻¹]	kobs of eIF1 dissociation (slow phase) [4] [s⁻¹]	kobs of eIF1 dissociation (slow phase) [5] [s⁻¹]
fluorescein-labeled G107K eIF1 (from UniProt P32911 1-108) (natural protein)	0.08	0.1	–	–	–
fluorescein-labeled WT eIF1 (from UniProt P32911 1-108) (natural protein)	0.13	0.4	0.14	0.4	0.56

From article PMC2783965
